B1: Ssa1-WT [yeast] / Sis1-FLRnq1 complex (Sis1-WT premixed with denatured Rnq1) [yeast] (parent complex)
chain 1: not shown
chain 2: MVKETKLYDLLGVSPSANEQELKKGYRKAALKYHPDKPTGDTEKFKEISEAFEILNDPQKREIYDQYGLEAARSGGPSFGPGGPGGAGGAGGFPGGAGGFSGGHAFSNEDAFNIFSQFFGGSSPFGGADDSGFSFSSYPSGGGAGMGGMPGGMGGMHGGMGGMPGGFRSASSSPTYPEEETVQVNLPVSLEDLFVGKKKSFKIGRKGPHGASEKTQIDIQLKPGWKAGTKITYKNQGDYNPQTGRRKTLQFVIQEKSHPNFKRDGDDLIYTLPLSFKESLLGFSKTIQTIDGRTLPLSRVQPVQPSQTSTYPGQGMPTPKNPSQRGNLIVKYKVDYPISLNDAQKRAIDENF
chain 3: MDTDKLISEAESHFSQGNHAEAVAKLTSAAQSNPNDEQMSTIESLIQKIAGYVMDNRSGGSDASQDRAAGGGSSFMNTLMADSKGSSQTQLGKLALLATVMTHSSNKGSSNRGFDVGTVMSMLSGSGGGSQSMGASGLAALASQFFKSGNNSQGQGQGQGQGQGQGQGQGQGSFTALASLASSFMNSNNNNQQGQNQSSGGSSFGALASMASSFMHSNNNQNSNNSQQGYNQSYQNGNQNSQGYNNQQYQGGNGGYQQQQGQSGGAFSSLASMAQSYLGGGQTQSNQQQYNQQGQNNQQQYQQQGQNYQHQQQGQQQQQGHSSSFSALASMASSYLGNNSNSNSSYGGQQQANEYGRPQQNGQQQSNEYGRPQYGGNQNSNGQHESFNFSGNFSQQNNNGNQNRY
B2: Sis1-WT [yeast] / Ssa1-WT [yeast] (parent complex)
chain 1: B1 chain 2
chain 2: not shown
B3: Sis1-WT [yeast] / full-length Rnq1 [yeast] (parent complex)
chain 1: B1 chain 2
chain 2: B1 chain 3

Variants of: B1
Assay: ELISA; Denatured Rnq1 premixed with Sis1 and immobilized; Ssa1-WT at 20 nM; detection with αSsa1 antibody; parent: 230; read off a plot

First: chain 2 N56L
Second: chain 2 S49V
The response of the first is lower: ~89 Abs 450nm for the first, ~170 Abs 450nm for the second.

First: chain 2 E53A
Second: chain 2 E53K
The response of the first is higher: ~120 Abs 450nm for the first, ~110 Abs 450nm for the second.

Variants of: B2
Assay: ELISA; Ssa1 (200 nM) immobilized; Sis1 at 20 nM; detection with αSis1 antibody; parent: 130; read off a plot

Compared with chain 1 N56L, chain 1 E53A is higher in response: ~75 Abs 450nm for the first, ~78 Abs 450nm for the second.

First: chain 1 E53K
Second: chain 1 S49V
The response of the first is higher: ~97 Abs 450nm for the first, ~82 Abs 450nm for the second.

Variants of: B3
Assay: ELISA; 400 ng denatured FL Rnq1 immobilized; Sis1 at 20 nM; detection with Sis1-specific antibody; parent: 240; read off a plot

Going from chain 1 MVKETKLYDLLGVSPSANEQELKKGYRKAALKYHPDKPTGDTEKFKEIVEAFEILNDPQKREIYDQYGLEAARSGGPSFGPGGPGGAGGAGGFPGGAGGFSGGHAFSNEDAFNIFSQFFGGSSPFGGADDSGFSFSSYPSGGGAGMGGMPGGMGGMHGGMGGMPGGFRSASSSPTYPEEETVQVNLPVSLEDLFVGKKKSFKIGRKGPHGASEKTQIDIQLKPGWKAGTKITYKNQGDYNPQTGRRKTLQFVIQEKSHPNFKRDGDDLIYTLPLSFKESLLGFSKTIQTIDGRTLPLSRVQPVQPSQTSTYPGQGMPTPKNPSQRGNLIVKYKVDYPISLNDAQKRAIDENF [chain 1 S49V] to chain 1 MVKETKLYDLLGVSPSANEQELKKGYRKAALKYHPDKPTGDTEKFKEISEAFEILLDPQKREIYDQYGLEAARSGGPSFGPGGPGGAGGAGGFPGGAGGFSGGHAFSNEDAFNIFSQFFGGSSPFGGADDSGFSFSSYPSGGGAGMGGMPGGMGGMHGGMGGMPGGFRSASSSPTYPEEETVQVNLPVSLEDLFVGKKKSFKIGRKGPHGASEKTQIDIQLKPGWKAGTKITYKNQGDYNPQTGRRKTLQFVIQEKSHPNFKRDGDDLIYTLPLSFKESLLGFSKTIQTIDGRTLPLSRVQPVQPSQTSTYPGQGMPTPKNPSQRGNLIVKYKVDYPISLNDAQKRAIDENF [chain 1 N56L], the response falls from ~130 Abs 450nm to ~60 Abs 450nm.

Going from chain 1 MVKETKLYDLLGVSPSANEQELKKGYRKAALKYHPDKPTGDTEKFKEISEAFKILNDPQKREIYDQYGLEAARSGGPSFGPGGPGGAGGAGGFPGGAGGFSGGHAFSNEDAFNIFSQFFGGSSPFGGADDSGFSFSSYPSGGGAGMGGMPGGMGGMHGGMGGMPGGFRSASSSPTYPEEETVQVNLPVSLEDLFVGKKKSFKIGRKGPHGASEKTQIDIQLKPGWKAGTKITYKNQGDYNPQTGRRKTLQFVIQEKSHPNFKRDGDDLIYTLPLSFKESLLGFSKTIQTIDGRTLPLSRVQPVQPSQTSTYPGQGMPTPKNPSQRGNLIVKYKVDYPISLNDAQKRAIDENF [chain 1 E53K] to chain 1 MVKETKLYDLLGVSPSANEQELKKGYRKAALKYHPDKPTGDTEKFKEISEAFAILNDPQKREIYDQYGLEAARSGGPSFGPGGPGGAGGAGGFPGGAGGFSGGHAFSNEDAFNIFSQFFGGSSPFGGADDSGFSFSSYPSGGGAGMGGMPGGMGGMHGGMGGMPGGFRSASSSPTYPEEETVQVNLPVSLEDLFVGKKKSFKIGRKGPHGASEKTQIDIQLKPGWKAGTKITYKNQGDYNPQTGRRKTLQFVIQEKSHPNFKRDGDDLIYTLPLSFKESLLGFSKTIQTIDGRTLPLSRVQPVQPSQTSTYPGQGMPTPKNPSQRGNLIVKYKVDYPISLNDAQKRAIDENF [chain 1 E53A], the response falls from ~140 Abs 450nm to ~79 Abs 450nm.
